B1: C40M121 (antibody, human IgG1, lambda, V domains shown)
VH: QLQLQESGPGLVKPSETLSLTCTVSGGSISSSSYYWGWIRQPPGKGLEWIGNIYYRGDTYYSPSLKSRVTISVDTSKNQFSLKLSSVTAADTAVYYCAKGFRFDYWGQGTLVTVSS
VL: QSALTQPPSASGSPGQSVTISCTGTSSDVGGYNYVSWYQQHPGKAPKLMIYEVSKRPSGVPDRFSGSKSGNTASLTVSGLQAEDEADYYCSSYAGSNNLVFGGGTKLTVLG
B2: C40M105 (antibody, human IgG1, lambda, V domains shown)
VH: QLQLQESGPGLVKPSETLSLTCTVSGGSISSSSYYWGWIRQPPGKGLEWIGNIYYRGDTYYSPSLKSRVTISVDTSKNQFSLKLSSVTAADTAVYYCARGFRFDYWGQGTLVTVSS
VL: QSALTQPPSASGSPGQSVTISCTGTSSDVGGYNYVSWYQQHPGKAPKLMIYEVSKRPSGVPDRFSGSKSGNTASLTVSGLQAEDEADYYCSSYAGSNNLVFGGGTKLTVLG
B3: C40M102 (antibody, human IgG1, lambda, V domains shown)
VH: EVQLVESGGGLVQPGGSLRLSCAASGFTFSSYAMSWVRQAPGKGLEWVSIINNNVGRTYYADSVKGRFTISRDNSKNTLYLQMNSLRAEDTAVYYCAKEGGDYYYYGMDVWGQGTTVTVSS
VL: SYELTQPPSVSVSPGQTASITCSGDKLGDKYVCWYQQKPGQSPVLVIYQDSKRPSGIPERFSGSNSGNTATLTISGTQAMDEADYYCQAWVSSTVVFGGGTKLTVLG
notes: Variant of C40M18 (VH C40H48, VL C40L70); cloned as IgG1

Key:
[1] = target: T1, Full length human CD40 (huCD40) on cells (human, UniProt P25942 21-277); assay: flow cytometry, human DCs; separate experiment
T1 construct: CD40 on human mature DCs, human B cells, Raji cells and HEK-Blue CD40L cells (stably expressing human CD40); also called TNFRSF5
T1 sequence (P25942 21-277): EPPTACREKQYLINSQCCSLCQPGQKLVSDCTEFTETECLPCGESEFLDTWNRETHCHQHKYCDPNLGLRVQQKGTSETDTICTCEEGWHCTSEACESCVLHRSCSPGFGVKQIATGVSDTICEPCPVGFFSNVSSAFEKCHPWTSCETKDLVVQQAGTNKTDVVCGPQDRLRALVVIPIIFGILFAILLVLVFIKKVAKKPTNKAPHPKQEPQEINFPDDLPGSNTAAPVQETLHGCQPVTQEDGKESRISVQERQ

[2] = target: T1, Full length human CD40 (huCD40) on cells; assay: flow cytometry, HEK-Blue CD40L cells; separate experiment
[3] = target: T1, Full length human CD40 (huCD40) on cells; assay: flow cytometry, human B cells; separate experiment
[4] = target: T1, Full length human CD40 (huCD40) on cells; assay: cell-based or functional assay
[5] = target: T1, Full length human CD40 (huCD40) on cells; assay: flow cytometry, human B cells
[6] = target: T1, Full length human CD40 (huCD40) on cells; assay: flow cytometry, human DCs
[7] = target: T1, Full length human CD40 (huCD40) on cells; assay: flow cytometry, HEK-Blue CD40L cells

Row | Binder | EC50 [1] | EC50 [2] | EC50 [3] | EC50, Human B cells (CD83), separate experiment [4] | EC50, Human DC (HLA-DR), separate experiment [4] | EC50, agonistic activity on HEK-Blue™ CD40L cells (NF-κB/SEAP), separate experiment [4] | EC50 [5] | EC50 [6] | EC50, Human B cells (CD83) [4] | EC50, Human DC (HLA-DR) [4] | EC50, agonistic activity on HEK-Blue™ CD40L cells (NF-κB/SEAP) [4] | EC50 [7]
1 | B1 | 0.0572 µg/mL | 0.464 µg/mL | 0.0228 µg/mL | 0.000334 µg/mL | 0.0185 µg/mL | 0.00633 µg/mL | – | – | – | – | – | –
2 | B2 | – | – | – | – | – | – | 6.65 µg/mL | 5.76 µg/mL | 0.00282 µg/mL | 2.97 µg/mL | 0.0173 µg/mL | 2.16 µg/mL
3 | B3 | – | – | – | – | – | – | 0.159 µg/mL | 0.438 µg/mL | 0.0239 µg/mL | 0.367 µg/mL | 0.0751 µg/mL | 0.162 µg/mL
